In one assay the test system is TGF-β. Description: Measurement of TGF-β activity in serum-free culture supernatants of spleen cells. It is filed as cell-based, Lewis rats. The protocol: Measurement Of TGF-β Activity In Serum-Free Culture Supernatants. Serum free culture supernatants were collected as previously described (Kehri, et al. J. Exp. Med. 163: 1037-1050, 1986; Wahl, et al. J. […] Thereafter cells were washed three times and resuspended in serum-free medium for the remainder of the 72 hour culture, collected, then frozen until assayed. Determination of TGF-β content and isoform type in supernatants was performed using a mink lung epithelial cell line (American Type Culture Collection, Bethesda, Md. #CCL-64) according to Danielpour et al. (supra), and confirmed by a Sandwich Enzyme Linked Immunosorbent Assay (SELISA) assay as previously described (Danielpour et al. Growth Factors 2: 61-71,1989). The percent active TGF-β was determined by assay without prior acid activation of the samples.

The test system of another assay is OVA line. In words: Transwell culture suppression of OVA T cell line. It is filed as cell-based, Lewis rats. An excerpt:
Transwell Cultures. A dual chamber transwell culture system (Costar, Cambridge, Mass.), which is 24.5 mm in diameter and consists of two compartments separated by a semi-permeable polycarbonate membrane, with a pore size of 0.4 μm, was used. The two chambers are 1 mm apart, allowing cells to be coin-cubated in close proximity without direct cell-to-cell contact. To measure in vitro suppression of proliferative responses in transwell cultures, 5×10^4 MBP- or OVA-specific line cells, raised and maintained as previously described (Ben-Nun, A. et al., Eur. J. Immunol. 11:195, 1981), were cultured with 10^6 irradiated (2,500 rad) thymocytes, in 600 μl of proliferation media in the lower well. Spleen cells from orally tolerized rats or controls (fed BSA) were added to the upper well (5×10^5 cells in 200 μl). Spleen cells were removed 7-14 days after the last feeding, and a single cell suspension was prepared by pressing the spleens through a stainless steel mesh. MBP and OVA (50 μg/ml) were added in a volume of 20 μl. […] In some experiments, modulator cells were added in the lower well together with responder cells, and in these instances modulator cells were irradiated (1,250 rad) immediately before being placed in culture. Proliferation media consisted of RPMI 1640 (Gibco Laboratories, Grand Island, N.Y.) supplemented with […] 2-mercaptoethanol, 1% sodium pyruvate, 1% penicillin and streptomycin, 1% glutamine, 1% HEPES buffer, 1% nonessential amino acids, and 1% autologous serum. Each transwell was performed in quadruplicate. The transwells were incubated at 37° C. in a humidified 6% CO2 and 94% air atmosphere for 72 hours. After 54 hours of culture, each lower well was pulsed with 4 μCi of [^3H]thymidine and at 72 hours split and reseeded to three wells in a round-bottomed 96-well plate (Costar) for harvesting onto fiberglass filters and counting using standard liquid scintillation techniques. Percent suppression =100×(1−Δ A cpm responders cultured with modulators/Δ cpm of responders).

Assay [1] has as its system EAE. In words: In vivo bystander suppression of EAE (MBP/CFA plus secondary antigen). Also noted: species or system Lewis rats. The note with it: MBP fed before MBP/CFA immunization; FIG. 6B. The protocol: Immunization Of Animals. Animals were immunized with 25 μg of MBP in the footpad, emulsified in an equal volume of CFA containing 4 mg/ml of Mycobacterium tuberculosis (Difco Labs, Detroit, Mich.) in order to induce a substantial EAE disease state. For in vivo bystander suppression experiments, 50-300 μg of the secondary antigens OVA, BSA or KLH were injected subcutaneously in the same footpad in 100 μl PBS 8 hours after primary immunization with MBP CFA.
Clinical Evaluation. Animals were evaluated in a blinded fashion every day for evidence of EAE in order to correlate the clinical manifestations of Bystander Suppression with the in vitro assays described below. Clinical severity of EAE was scored as follows: 0, no disease; 1, limp tail; 2, hind limb paralysis; 3, hind limb paraplegia, incontinence; 4, tetraplegia; 5, death. Mean maximal clinical severity was calculated as previously described for each experimental group (7). Statistical analysis was performed using a one-tailed student's t test and a chi square analysis for comparing incidence between groups.
Induction Of Oral Tolerance. Animals were fed 1 mg MBP, OVA, BSA or KLH dissolved in 1 ml PBS or PBS alone, by gastric intubation using an 18-gauge stainless steel animal feeding needle (Thomas Scientific, Swedesboro, N.J.). Animals were fed five times (total dose of 5 mg), at intervals of 2-3 days with the last feeding 2 days before immunization.

For assay [2], the system named is EAE. In words: Adoptive transfer of disease suppression. It is filed as in vivo, Lewis rats. The note with it: naive recipients immunized with MBP/CFA and given OVA subcutaneously; FIG. 9. The protocol:
Adoptive Transfer Of Disease Suppression. In order to monitor the adoptive transfer of disease suppression occurring during Bystander Suppression donor rats were fed either 1 mg MBP, OVA, or KLH, five times at 2 day intervals and killed 7-14 days after the final feeding. Spleen cells were harvested, and incubated in vitro with the homologous antigen (50 μg/ml) in proliferation medium, for 72 hours. Cells were injected intraperitoneally: 10^8 cells for whole spleen populations or 5-6×10^7 cells for CD8− or CD4-depleted populations. Recipient animals were irradiated (250 rad) before adoptive transfer, immunized with MBP/CFA 6 hours after adoptive transfer, and challenged 8 hours later with 50 μg OVA.

A further assay concerns insulitis. In words: Suppression of insulitis in NOD mice by oral administration. It is filed as in vivo. The note with it: fed orally. The protocol: NOD mice (Taconic Labs) were fed one mg of glucagon, or one mg of porcine insulin (both commercially purchased) or equal molar amounts of insulin A-chain, B-chain and B-chain peptides described below (all insulin fragments having been synthesized) twice weekly for five weeks and sacrificed at ten weeks of age.
Control animals were fed a non-pancreatic (i.e., unrelated) peptide, GAP. Insulitis was measured as a semiquantitative insulitis score according to the method described in Zhang, Z. J., PNAS(USA), 88:10252-10256, 1991.
The insulin B-chain peptides corresponded to amino acid residues 1-12 (B1-12), 10-22 (B10-22), 11-30 (B11-30) and 23-30 (B23-30). All animals were fed 10 times over three weeks.

Assay [3] relates to EAE. In words: I.V. tolerization with MBP and MBP peptides in EAE induced with whole guinea pig MBP. It is filed as in vivo, SJL/J mice. The note with it: days 8 and 9 post immunization, FIG. 16. An excerpt:
FIG. 16 is a bar graph showing the effect of intravenous tolerization with MBP and disease inducing and non-inducing fragments thereof on induced EAE expression in SJL/J mice.
Finally, the suppression of EAE by I.V. tolerization with MBP and MBP peptides prior to disease expression (on days 8 and 9 post immunization) was examined.

[4] abbreviates: spleen cells of MBP-fed animals stimulated with concanavalin-A.
[5] abbreviates: MBP-fed modulators + MBP in upper well.
Where [6] appears, read: MBP-fed modulators in upper well without MBP.

B1: MBP: Guinea pig myelin basic protein purified from brain tissue (protein, UniProt P25188 1-167, looked up)
Myelin basic protein: ASQKRPSQRHGSKYLATASTMDHARHGFLPRHRDTGILDSIGRFFGSDRAAPKRGSGKDSHHAARTTHYGSLPQKSQRSQDENPVVHFFKNIVTPRTPPPSQGKGRGLSLSRFSWGAEGQKPGFGYGGRADYKSKGFKGAHDAQGTLSKIFKLGGRDSRSGSPMARR
For the molecule B1, in the assay on TGF-β (setting [4]), the “active TGF-β” value is “No active TGF-β was observed” and the “latent TGF-β” value worked out at 2.1 ± 0.45 ng/mL. In addition, the “TGF-β in the active form” value in the assay on TGF-β (spleen cells of fed animals stimulated in vitro with the fed antigen) turned out to be 68±9%. Also, the “amount of TGF-β” value in the assay on TGF-β (spleen cells of fed animals stimulated in vitro with the fed antigen, serum-free) is 6.8 ± 1.7 ng/mL. In the assay on OVA line (setting [5]), the “Percent Suppression” value stood at 51% and the Δ cpm is 30,974 ± 3,450 cpm. In the assay on OVA line (setting [6]), the “Percent Suppression” value is listed as −5% and the Δ cpm is on record as 65,868 ± 3,989 cpm. Also, in the assay on EAE [1], the disease severity stood at 1.1±0.1. In addition, the “adoptive transfer of protection by spleen cells from fed animals” value in the assay on EAE [2] is given as “adoptively transferred protection”. Besides, the “suppression of insulitis (in words)” value with insulitis is given as “No suppression was observed”. Further, the “Insulitis Score” value with insulitis (amount (mg) per Table 5, sacrificed at ten weeks of age) was found to be 2.14. In addition, the “suppression of EAE induced with whole guinea pig MBP” value with EAE [3] is reported as “effective in suppressing EAE”.

These data come from patent US6645504B1, “Bystander suppression of type I diabetes by oral administration of glucagon” (AutoImmune Inc., priority 1987, dated 2003).
